Among the data in PMC4425231 are Kd and percent of the dimer bound to this IκB values, retold here.

The target in one assay is p50 dimerization domain (UniProt P25799). The assay can be described thus: AUC + SEC.
Assay [1] concerns the target IκBβ (endogenous, MEF cytoplasmic extract) (mouse (endogenous in MEFs)) (UniProt Q60778). The assay is described as follows: immunodepletion followed by deoxycholate EMSA. (In general: Mobility shift assays separate free from complexed probe on a gel.)
The target is the same in assay [2]. The assay is described as follows: kinetic model fitted to immunoblot abundances of IκBs in NFκB-knockout MEFs. Background: In western blotting, separated proteins are transferred to a membrane and probed.

Chain of IκBβ (endogenous, MEF cytoplasmic extract) (mouse (endogenous in MEFs)) (Q60778 whole entry): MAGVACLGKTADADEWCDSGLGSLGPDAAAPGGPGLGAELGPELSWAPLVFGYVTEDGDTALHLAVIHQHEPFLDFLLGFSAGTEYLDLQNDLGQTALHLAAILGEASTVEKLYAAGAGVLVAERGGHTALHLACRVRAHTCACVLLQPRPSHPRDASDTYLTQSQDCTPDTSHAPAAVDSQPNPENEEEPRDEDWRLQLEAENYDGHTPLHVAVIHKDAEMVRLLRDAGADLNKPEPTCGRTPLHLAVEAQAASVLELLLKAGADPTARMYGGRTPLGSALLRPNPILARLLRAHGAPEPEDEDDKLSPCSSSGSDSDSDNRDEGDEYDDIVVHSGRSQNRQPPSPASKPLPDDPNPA
Chain of p50 dimerization domain (P25799 1-431): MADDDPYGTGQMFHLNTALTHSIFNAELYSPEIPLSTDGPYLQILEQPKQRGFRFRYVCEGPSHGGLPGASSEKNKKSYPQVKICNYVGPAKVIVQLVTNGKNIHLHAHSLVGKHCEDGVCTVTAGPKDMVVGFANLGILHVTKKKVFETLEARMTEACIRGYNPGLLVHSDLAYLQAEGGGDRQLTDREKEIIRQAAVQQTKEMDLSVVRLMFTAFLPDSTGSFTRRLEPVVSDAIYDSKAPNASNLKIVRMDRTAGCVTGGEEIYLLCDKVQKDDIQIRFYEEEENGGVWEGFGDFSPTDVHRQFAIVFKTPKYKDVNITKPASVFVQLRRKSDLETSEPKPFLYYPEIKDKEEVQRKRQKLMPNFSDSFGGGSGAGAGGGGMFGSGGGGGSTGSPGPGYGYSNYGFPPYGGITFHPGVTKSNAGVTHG

With “RelA dimerization domain (from UniProt Q04207 1-549) (domain or fragment)”, the Kd with p50 dimerization domain stood at 10 nM.

In turn, “RelA:RelA homodimer (endogenous, MEF cytoplasmic extract) (from UniProt Q04207 1-549) (complex)” yielded a percent of the dimer bound to this IκB in assay [1] of over 50%. Besides, the Kd in assay [2] was determined as 0.0032 nM.

The term Kd denotes the equilibrium constant for the complex coming apart.
